This assay has as its target T1, His-tagged full length Taf14 (S. cerevisiae, UniProt P35189 1-244, labeled with His-Tag Labeling Kit RED-tris-NTA (2nd Generation)).
T1 sequence (looked up): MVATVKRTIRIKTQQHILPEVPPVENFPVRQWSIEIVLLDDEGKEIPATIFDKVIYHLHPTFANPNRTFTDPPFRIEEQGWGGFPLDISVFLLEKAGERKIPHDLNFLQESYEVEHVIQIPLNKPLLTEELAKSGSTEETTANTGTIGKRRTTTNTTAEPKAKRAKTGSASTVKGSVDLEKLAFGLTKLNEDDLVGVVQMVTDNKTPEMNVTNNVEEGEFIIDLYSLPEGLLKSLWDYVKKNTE
Briefly: MST.

These results are taken from publication PMC11539623 (Biochimica et biophysica acta. Gene regulatory mechanisms, 2023).

As for GHSLLLSIKLPG (peptide, UniProt P18480 782-793, looked up) [Snf5 ET domain binding motif peptide (aa 782-793)], the “fold weaker binding than the isolated Taf14ET” value was found to be 7 fold.
